# The Human Domainome abundance scans (Beltran et al. 2025)
# ± gives the uncertainty stated by the source.
# B1: Protein S100-G, residues 1 to 79; numbered along this chain, P02633 (parent)
# chain: MSAKKSPEELKGIFEKYAAKEGDPNQLSKEELKLLLQTEFPSLLKGPSTLDELFEELDKNGDGEVSFEEFQVLVKKISQ
# Variants of: B1
# Assay: abundance fitness (aPCA) (normalised: wild type 0, dead -1); higher = more abundant; growth selection in yeast, the domain comes from the species named
# Details: Bos taurus
row,Variant,abundance fitness
1,Q37W,-0.082 ± 0.085
2,Q37G,0.004 ± 0.08
3,Q37E,0.019 ± 0.092
4,Q37D,0.054 ± 0.088
5,Q37P,-0.185 ± 0.072
6,Q37T,0.021 ± 0.067
7,Q37M,-0.104 ± 0.078
8,Q37A,-0.058 ± 0.074
9,Q37L,-0.08 ± 0.06
10,Q37C,-0.076 ± 0.083
11,Q37F,-0.016 ± 0.074
12,Q37S,-0.142 ± 0.063
13,Q37I,-0.104 ± 0.072
14,Q37Y,-0.118 ± 0.075
15,Q37K,-0.008 ± 0.08
16,Q37R,0.005 ± 0.067
17,Q37H,-0.047 ± 0.078
18,Q37V,-0.001 ± 0.072
19,L34E,0.054 ± 0.097
20,L34F,-0.036 ± 0.075
21,L34R,0.05 ± 0.07
22,L34N,0.041 ± 0.085
23,L34A,0.066 ± 0.075
24,L34V,-0.031 ± 0.072

row,Variant,abundance fitness
1,L34D,0.113 ± 0.093
2,L34G,0.035 ± 0.08
3,L34K,0.027 ± 0.085
4,L34T,0.023 ± 0.074
5,L34I,0.018 ± 0.09
6,L34Y,-0.015 ± 0.079
7,L34C,-0.045 ± 0.08
8,L34H,0.05 ± 0.078
9,L34S,-0.04 ± 0.064
10,E39Q,-0.21 ± 0.089
11,E39P,-1.63 ± 0.097
12,E39T,-0.218 ± 0.069
13,E39N,-0.138 ± 0.077
14,E39L,-0.207 ± 0.065
15,E39R,-0.449 ± 0.076
16,E39D,-0.16 ± 0.082
17,E39I,-0.24 ± 0.078
18,E39A,-0.515 ± 0.07
19,E39M,-0.177 ± 0.087
20,E39G,-0.809 ± 0.083
21,E39Y,-0.197 ± 0.075
22,E39H,-0.059 ± 0.074
23,E39W,-0.349 ± 0.1
24,E39V,-0.304 ± 0.068

row,Variant,abundance fitness
1,E39C,-0.295 ± 0.093
2,E39K,-0.33 ± 0.091
3,E39S,-0.308 ± 0.065
4,E39F,-0.345 ± 0.08
5,E31V,-0.033 ± 0.079
6,E31S,0.002 ± 0.074
7,E31Y,-0.07 ± 0.091
8,E31N,0.023 ± 0.092
9,E31P,-0.022 ± 0.095
10,E31R,-0.064 ± 0.078
11,E31T,-0.175 ± 0.086
12,E31W,-0.171 ± 0.11
13,L35P,-2.06 ± 0.096
14,L35M,0.031 ± 0.076
15,L35N,-1.04 ± 0.081
16,L35H,-0.724 ± 0.074
17,L35G,-0.51 ± 0.085
18,L35W,-0.313 ± 0.084
19,L35F,-0.164 ± 0.069
20,L35K,-0.829 ± 0.092
21,L35I,0.016 ± 0.075
22,L35A,0.02 ± 0.08
23,L35E,-1.11 ± 0.11
24,L35C,-0.064 ± 0.08

row,Variant,abundance fitness
1,L35Q,-0.684 ± 0.091
2,L35S,-0.206 ± 0.06
3,L35D,-1.44 ± 0.11
4,L35T,-0.174 ± 0.066
5,F40N,-0.084 ± 0.077
6,F40A,-0.189 ± 0.079
7,F40Y,-0.011 ± 0.074
8,F40W,0.008 ± 0.095
9,F40L,-0.037 ± 0.062
10,F40V,-0.065 ± 0.072
11,F40M,0.047 ± 0.081
12,F40C,-0.059 ± 0.082
13,F40G,-0.155 ± 0.085
14,F40E,-0.158 ± 0.094
15,F40I,0.019 ± 0.076
16,F40K,-0.218 ± 0.084
17,F40D,-0.099 ± 0.091
18,F40T,-0.106 ± 0.072
19,F40P,-0.889 ± 0.079
20,F40Q,-0.178 ± 0.081
21,F40S,-0.16 ± 0.064
22,T38Q,0.008 ± 0.082
23,T38A,0.027 ± 0.078
24,T38N,-0.056 ± 0.085

row,Variant,abundance fitness
1,T38F,-0.002 ± 0.08
2,T38C,-0.034 ± 0.095
3,T38W,-0.194 ± 0.089
4,T38P,-0.642 ± 0.077
5,T38R,-0.082 ± 0.071
6,T38H,-0.045 ± 0.091
7,T38G,-0.1 ± 0.084
8,T38D,0.096 ± 0.098
9,T38L,-0.073 ± 0.061
10,T38I,-0.004 ± 0.081
11,T38M,-0.045 ± 0.075
12,T38V,0.014 ± 0.075
13,T38Y,-0.074 ± 0.084
14,L36D,-2.17 ± 0.14
15,L36G,-0.589 ± 0.085
16,L36W,-0.076 ± 0.087
17,L36Q,-0.789 ± 0.09
18,L36Y,-0.209 ± 0.075
19,L36S,-0.499 ± 0.063
20,L36V,-0.01 ± 0.067
21,L36A,-0.1 ± 0.07
22,L36I,-0.013 ± 0.076
23,L36F,-0.008 ± 0.074
24,L36C,-0.099 ± 0.093

row,Variant,abundance fitness
1,L36R,-1.92 ± 0.092
2,L36K,-1.98 ± 0.11
3,L36H,-1.08 ± 0.083
4,L36T,-0.203 ± 0.065
5,L36E,-1.37 ± 0.11
6,P41K,0.017 ± 0.087
7,P41H,0.066 ± 0.088
8,P41A,0.079 ± 0.074
9,P41C,-0.159 ± 0.094
10,P41E,-0.191 ± 0.091
11,P41D,-0.021 ± 0.092
12,P41M,-0.091 ± 0.085
13,P41Q,0.025 ± 0.086
14,P41F,-0.019 ± 0.098
15,P41N,-0.06 ± 0.081
16,P41G,0.002 ± 0.072
17,P41L,-0.072 ± 0.065
18,K33E,-0.032 ± 0.093
19,K33W,-0.479 ± 0.083
20,K33V,-0.016 ± 0.072
21,K33A,0.043 ± 0.076
22,K33N,-0.016 ± 0.085
23,K33H,-0.041 ± 0.088
24,K33Y,-0.121 ± 0.085

row,Variant,abundance fitness
1,K33F,-0.022 ± 0.091
2,K33R,-0.005 ± 0.07
3,K33C,-0.072 ± 0.084
4,K33T,0.059 ± 0.074
5,K33I,-0.051 ± 0.086
6,K33G,0.033 ± 0.08
7,L32T,-0.054 ± 0.075
8,L32C,-0.097 ± 0.087
9,L32S,-0.138 ± 0.064
10,L32H,-0.951 ± 0.096
11,L32E,-1.72 ± 0.11
12,L32K,-1.03 ± 0.098
13,L32N,-0.673 ± 0.093
14,L32Q,-0.616 ± 0.083
15,L32P,-2.71 ± 0.14
16,L32V,-0.067 ± 0.067
17,L32R,-0.874 ± 0.067
18,L32F,-0.048 ± 0.083
19,L32D,-3.08 ± 0.22
20,L32I,0.067 ± 0.093
21,L32Y,-0.205 ± 0.087
22,L32A,0.027 ± 0.073
23,L32W,-0.209 ± 0.081
